# Results: patent US20240271115A1
# B1: Recombinant IdeS expressed from codon-optimized cDNA IdeS^op2 (pGEX-IdeS^op2), designated Ab-C (protein)
# chain: RKRCYSTSAVVLAAVTLFALSVDRGVIADSFSANQEIRYSEVTPYHVTSVWTKGVTPPAKFTQGEDVFHAPYVANQGWYDITKTFNGKDDLLCGAATAGNMLHWWFDQNKEKIEAYLKKHPDKQKIMFGDQELLDVRKVINTKGDQTNSELFNYFRDKAFPGLSARRIGVMPDLVLDMFINGYYLNVYKTQTTDVNRTYQEKDRRGGIFDAVFTRGDQSKLLTSRHDFKEKNLKEISDLIKKELTEGKALGLSHTYANVRINHVINLWGADFDSNGNLKAIYVTDSDSNASIGMKKYFVGVNSAGKVAISAKEIKEDNIGAQVLGLFTLSTGQDSWNQTN
# Molecular target: Human IgG in human serum
protein,measurement,value
B1,"IgG cleavage, PAGE-Coomassie stain, purified normalized IdeS samples incubated with human serum for 1 h",The results showed more effective IgG cleavage by IdeS^op2
